Article PMC3752404 (Molecular cell, 2011)
Positions count from the first letter of the chain named. In names and notes the source's numbering stands. Several values for one entry are separate records, joined by “and”; a condition that tells them apart may be missing. Equal values may be shown once. One block for each molecule: values may come before it.

Assays:
[1] = target: Swi6 (wild type, tagged: N-terminal 6xHis and C-terminal FLAG) (S. pombe) (UniProt P40381); test: equilibrium competition with a fluorescently labeled DNA
[2] = target: MLA methylated (H3Kc9me3) mononucleosome on the 147 bp 601 sequence; test: AUC
[3] = target: H3K9 2N(L15) dinucleosome; test: native gel or EMSA
[4] = target: H3K9 2N(L47) dinucleosome; test: native gel or EMSA
[5] = target: H3Kc9me3 12N(L15) nucleosome array; test: native gel or EMSA
[6] = target: H3Kc9me3 12N(L47) nucleosome array; test: native gel or EMSA
[7] = target: H3Kc9me3 2N(L15) dinucleosome; test: native gel or EMSA
[8] = target: H3Kc9me3 2N(L47) dinucleosome; test: native gel or EMSA
[9] = target: MLA methylated (H3Kc9me3) mononucleosome on the 147 bp 601 sequence; test: native gel or EMSA
[10] = target: Swi6 chromoshadow domain (WT CSD) (S. pombe)
[11] = target: Swi6 chromoshadow domain (WT CSD) (S. pombe); test: ITC
H3K9me3 tail peptide = test: fluorescence polarisation
SEC-MALS = target: the molecule itself; test: SEC-MALS
SEC-MALS + cross-linking = target: the molecule itself; test: SEC-MALS + cross-linking
cross-linking = target: the molecule itself; test: cross-linking
SEC = target: the molecule itself; test: SEC

Molecule: MLA methylated (H3Kc9me3) mononucleosome on the 147 bp 601 sequence (complex)
fold specificity over H3K9 nucleosomes [1]: 5 fold

Molecule: Swi6 V82E-Y131W (from UniProt P40381 1-328) (natural protein)
fold increase of specificity compared to WT Swi6 [5]: 7 fold | fold specificity over the H3K9 12N(L15) array [5]: 130 fold

B2: Swi6 (wild type, tagged: N-terminal 6xHis and C-terminal FLAG) (natural protein, S. pombe, UniProt P40381 1-328, looked up)
chain: MKKGGVRSYRRSSTSKRSVIDDDSEPELPSMTKEAIASHKADSGSSDNEVESDHESKSSSKKLKENAKEEEGGEEEEEDEYVVEKVLKHRMARKGGGYEYLLKWEGYDDPSDNTWSSEADCSGCKQLIEAYWNEHGGRPEPSKRKRTARPKKPEAKEPSPKSRKTDEDKHDKDSNEKIEDVNEKTIKFADKSQEEFNENGPPSGQPNGHIESDNESKSPSQKESNESEDIQIAETPSNVTPKKKPSPEVPKLPDNRELTVKQVENYDSWEDLVSSIDTIERKDDGTLEIYLTWKNGAISHHPSTITNKKCPQKMLQFYESHLTFRENE
stoichiometry N (SEC-MALS + cross-linking): 8 | stoichiometry N (cross-linking): 2 and > 2

B3: Swi6 Y131W (natural protein, S. pombe, UniProt P40381 1-328, looked up)
chain: B2 chain with Y131W
fold tetramer formation over WT (SEC-MALS): ~1.6 fold

B4: Swi6 V82E-Y131W (natural protein, S. pombe, UniProt P40381 1-328, looked up)
chain: B2 chain with V82E, Y131W
fold tetramer formation over WT (SEC-MALS): ~3.5 fold | stoichiometry N (SEC-MALS): 4 and 8

B5: Swi6 chromodomain (CD, aa 81-137) (domain or fragment, S. pombe, UniProt P40381 81-137, looked up)
chain: YVVEKVLKHRMARKGGGYEYLLKWEGYDDPSDNTWSSEADCSGCKQLIEAYWNEHGG
stoichiometry N (SEC): 2

Now from value to molecule, other results behind:

stoichiometry N [2]: 4 | K1/2 [3]: 156 nM | K1/2 [4]: 32 nM | fold specificity over the H3K9 12N(L15) array (ratio of K1/2) [5]: 25 fold | fold specificity over the H3K9 12N(L47) array (ratio of K1/2) [6]: 5.4 fold | K1/2 [7]: 62 nM | K1/2 [8]: 12 nM | fold preference over H3K9 nucleosomes (ratio of K1/2) [9]: 5 fold
Molecule: Swi6 (wild type, tagged: N-terminal 6xHis and C-terminal FLAG) (from UniProt P40381 1-328) (natural protein)

fold increase of affinity on removing the tags (nucleosomes and arrays): 2.5 fold
Molecule: Swi6 (wild type, untagged) (from UniProt P40381 1-328) (natural protein)

stoichiometry N [2]: 2 | fold discrimination between methylated and unmethylated arrays [5]: 2 to 3 fold
Molecule: Swi6 L315D (from UniProt P40381 1-328) (natural protein)

stoichiometry N [10]: 2 | Kd [11]: < 17 nM
Molecule: Swi6 chromoshadow domain (WT CSD) (domain or fragment)

fold increase of binding (H3K9me3 tail peptide): 3 fold
B1: Swi6 V82E (natural protein, S. pombe, UniProt P40381 1-328, looked up)
chain: B2 chain with V82E
binding result (SEC-MALS): binds
